In paper PMC2063504, “Glycerate kinase of the hyperthermophilic archaeon Thermoproteus tenax: new insights into the phylogenetic distribution and physiological role of members of the three different glycerate kinase classes” (BMC Genomics, 2007):

Columns and labels:
[1] = molecular target: T1, glycerate kinase (GarK; class II glycerate kinase, MOFRL family) (Thermoproteus tenax, UniProt G4RPE9); experiment: coupled assay, effector study; assay type: biochemical; settings: product inhibitor, suggested competitive with ATP; 0.05 mM D-glycerate, 0.05 mM ATP (non-saturating), pH 7.5, 70 °C; mean of two measurements
T1 construct: full-length ORF, 398 residues, pET-24a (NdeI/EcoRI), E. coli BL21(DE3), no tag mentioned, conventional purification

O=C(O)[C@H](O)CO = experiment: discontinuous coupled assay (enolase, pyruvate kinase, lactate dehydrogenase; NADH); assay type: biochemical, Thermoproteus tenax; settings: 5 mM ATP, 20 mM Mg2+, pH 7.5, 70 °C, D-glycerate below 0.3 mM (substrate inhibition above)
[2] = tested on: Nc1ncnc2c1ncn2[C@@H]1O[C@H](COP(=O)(O)OP(=O)(O)OP(=O)(O)O)[C@@H](O)[C@H]1O; experiment: as above; assay type: biochemical, Thermoproteus tenax; settings: D-glycerate, 20 mM Mg2+, pH 7.5, 70 °C

Row | % activity of control at 0.1 mM [1] | Compound | Km (O=C(O)[C@H](O)CO) | kcat (O=C(O)[C@H](O)CO) | Km [2] | kcat [2]
1 | 39.1% | Nc1ncnc2c1ncn2[C@@H]1O[C@H](COP(=O)(O)OP(=O)(O)O)[C@@H](O)[C@H]1O [ADP] |  |  |  | 
2 |  | glycerate kinase (GarK; class II glycerate kinase, MOFRL family) (Thermoproteus tenax Kra 1) | 20 ± 10 µM | 3.57 s⁻¹ | 30 ± 10 µM | 3.12 s⁻¹
